Data taken from paper doi:10.1101/2025.11.26.690709, “Domain-specific decoupling of co-chaperone and ligase functions in STUB1 underlies biochemical and clinical heterogeneity in SCA48” (bioRxiv, 2025).

Target: the molecule itself
Assay: mass photometry; Refeyn OneMP; CHIP at 50 nM final in 20 mM HEPES pH 8.0, 200 mM NaCl; self-association of CHIP (dimer, tetramer, hexamer, octamer, high MW)

B1: CHIP R225*, recombinant (natural protein, human, UniProt Q9UNE7-1 1-303, looked up)
chain: MKGKEEKEGGARLGAGGGSPEKSPSAQELKEQGNRLFVGRKYPEAAACYGRAITRNPLVAVYYTNRALCYLKMQQHEQALADCRRALELDGQSVKAHFFLGQCQLEMESYDEAIANLQRAYSLAKEQRLNFGDDIPSALRIAKKKRWNSIEERRIHQESELHSYLSRLIAAERERELEECQRNHEGDEDDSHVRAQQACIEAKHDKYMADMDELFSQVDEKRKK
- stoichiometry N: 2

B2: CHIP P228S, recombinant, C-terminal His tag (natural protein, human, UniProt Q9UNE7-1 1-303, looked up)
chain: MKGKEEKEGGARLGAGGGSPEKSPSAQELKEQGNRLFVGRKYPEAAACYGRAITRNPLVAVYYTNRALCYLKMQQHEQALADCRRALELDGQSVKAHFFLGQCQLEMESYDEAIANLQRAYSLAKEQRLNFGDDIPSALRIAKKKRWNSIEERRIHQESELHSYLSRLIAAERERELEECQRNHEGDEDDSHVRAQQACIEAKHDKYMADMDELFSQVDEKRKKRDISDYLCGKISFELMREPCITPSGITYDRKDIEEHLQRVGHFDPVTRSPLTQEQLIPNLAMKEVIDAFISENGWVEDY
notes: CHIP (STUB1), SCA48-associated U-box mutation P228S
- binding result: binds
